Assays:
[1] = target: RPTPσ (transfected in 293T/17 cells for native PAGE) (not stated (human or mouse cDNA cloned)); test: native gel or EMSA; lysates (NP-40 buffer) of RPTPσ-transfected 293T/17 cells in Coomassie blue sample buffer, native PAGE, western blot; cells untreated or treated with CSPG for 30 min
[2] = target: RPTPσ FC (full-length RPTPσ fused to FKBP-Cluc) (not stated (human or mouse cDNA cloned) | not stated); test: split reporter (BiFC, NanoBiT); split firefly luciferase; 293T/17 cells co-transfected with RPTPσ FN/FC, 48 h, rapamycin for 4 hr against DMSO control

Row | stoichiometry N [1] | fold increase of bioluminescence with rapamycin against control cells [2] [fold] | Substance
1 | 2 | – | RPTPσ (transfected in 293T/17 cells for native PAGE) (receptor)
2 | – | 3 | RPTPσ FN (full-length RPTPσ fused to FRB-Nluc)
